This test addresses T1, mouse TEM7R extracellular domain, 6xHis-tagged, secreted (mouse, UniProt Q9DC11 31-455).
T1 construct: extracellular domain; also called mTEM7R ECD; TEM7R ECD; not shown: 6xHis tag from the pSecTag2/Hygro A vector
The experiment in a line: SPR (BIAcore), ECD immobilised on CM5 chip, 1:1 Langmuir fit. As for the experimental part:
scFvs were expressed in E. coli and purified by sequential IMAC and size exclusion chromatography (Robinson, M K et al. (2005) Cancer Research 65:1471-8). Binding of the TEM7R scFv, to extracellular domain (ECDs) was characterized by SPR using TEM7R ECD as the target antigen (Yuan, Q A et al. (2006) Mol. Cancer Ther. 5:2096-105). ECD was diluted to 10 μg/mL in 10 mM sodium acetate pH 5.2 and approximately 200 RU of ECD were immobilized onto CM5 sensor chips via NHS-ester chemistry.
Kinetic constants for A5 were determined by passing serially diluted samples (0 nM to 2 μM) over flow cells at flow rate of 40 μL/min. Response against an ErbB2 coated flow cell was used as a negative control and subtracted from the response generated against the TEM7R ECD to obtain the final sensorgrams. Data was evaluated using BIAEvaluation 3.2 software (BIAcore, Piscataway, N.J.) and fit using the 1:1 Langmuir binding model. Flow cells were regenerated by sequential 15-second pulses with 10 mM glycine, pH 2 and 50 mM Triethylamine, pH 10 followed by equilibration with PBS running buffer.

As a reminder, the Kd is the concentration at which binding is half-saturated. A higher Kd goes with lower affinity.

T1 sequence (Q9DC11 31-455): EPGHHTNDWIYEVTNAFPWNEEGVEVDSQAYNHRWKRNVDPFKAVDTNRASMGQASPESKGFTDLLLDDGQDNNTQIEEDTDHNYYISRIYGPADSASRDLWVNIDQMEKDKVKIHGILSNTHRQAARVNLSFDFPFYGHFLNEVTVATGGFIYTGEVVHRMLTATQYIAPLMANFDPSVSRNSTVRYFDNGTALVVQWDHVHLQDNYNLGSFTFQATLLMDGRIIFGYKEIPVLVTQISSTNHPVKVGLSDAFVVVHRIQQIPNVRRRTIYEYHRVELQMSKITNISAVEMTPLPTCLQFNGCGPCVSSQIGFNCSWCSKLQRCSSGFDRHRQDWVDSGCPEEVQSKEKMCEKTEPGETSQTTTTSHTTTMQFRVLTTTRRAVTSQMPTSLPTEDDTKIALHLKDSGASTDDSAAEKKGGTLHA

B1: anti-mTEM7R scFv#4 (scFv)
scFv: MAQVQLVESGGGLVQPGGSLRLSCAASGFTFSSYEMNWVRQAPGKGLEWVSYISSSGSTIYYADSVKGRFTISRDNSKNTLYLQMNSLRAEDTAVYYCASGDYMDVWGQGTTVTVSSSASGAELGGGGSGGGGSGGGGSTSDIQLTQSPSSLSASVGDRVTITCQASQDISNYLNWYQQKPGKAPKLLMYDASNLETGVPSRFSGSGSGTDFTFTISSLQPEDFATYYCQQSDNLPYTFGQGTKVDIKRS
notes: Human scFv from a naive phage library, expressed in E. coli TG1 (pUC119mycHis / pSYN2) and purified by Ni-NTA, so it carries a His tag; also called clone 4; anti-TEM7R scFv
Molecule B1 had a Kd of 10 nM.

These data come from patent US20130058935A1 (INSTITUTE FOR CANCER RESEARCH, published 2013).
